The target of test [1] is T1, human Carcinoembryonic antigen (CEA), also known as Carcinoembryonic antigen-related cell adhesion molecule 5 (human, UniProt P06731 35-685).
T1 construct: whole, on cells; Expressed on the tumor cell lines MKN45, LS174T, HT29 and others, and on transiently transfected HEK293T cells; also called human CEA; CEACAM5
T1 sequence (looked up): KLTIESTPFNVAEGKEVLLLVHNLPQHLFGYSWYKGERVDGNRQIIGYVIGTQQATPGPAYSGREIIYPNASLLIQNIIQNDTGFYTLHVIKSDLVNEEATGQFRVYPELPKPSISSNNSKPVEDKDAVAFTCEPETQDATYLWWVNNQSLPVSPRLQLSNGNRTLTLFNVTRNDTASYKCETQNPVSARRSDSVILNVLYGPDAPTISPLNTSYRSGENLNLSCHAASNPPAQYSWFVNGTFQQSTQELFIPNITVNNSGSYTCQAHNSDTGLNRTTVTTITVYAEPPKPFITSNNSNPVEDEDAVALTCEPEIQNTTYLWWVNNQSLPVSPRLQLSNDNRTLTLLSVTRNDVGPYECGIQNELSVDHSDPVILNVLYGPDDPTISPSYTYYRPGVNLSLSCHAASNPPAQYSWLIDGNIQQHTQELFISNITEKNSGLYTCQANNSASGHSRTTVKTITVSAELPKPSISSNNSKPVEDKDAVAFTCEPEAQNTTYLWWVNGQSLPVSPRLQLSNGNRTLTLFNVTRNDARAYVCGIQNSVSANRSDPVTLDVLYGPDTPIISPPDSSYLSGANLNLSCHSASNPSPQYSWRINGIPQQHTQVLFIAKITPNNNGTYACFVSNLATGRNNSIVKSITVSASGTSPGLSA
Nature of the test: flow cytometry on CEA-expressing MKN45 cells, PE anti-human Fc secondary. As to the method: Briefly, cells were harvested, counted, checked for viability and re-suspended at 2×10⁶ cells/ml in FACS buffer (100 μl PBS 0.1% BSA). […] Binding curves and EC50 values were obtained and calculated using GraphPadPrism5 (FIG. 2, binding to MKN45 cells).
A general note: Flow cytometry measures light scatter and fluorescence of single cells or particles in a stream.

Test [2] addresses T2, human CEACAM1 (human, UniProt P13688 35-526).
T2 construct: whole, on cells
T2 sequence (looked up): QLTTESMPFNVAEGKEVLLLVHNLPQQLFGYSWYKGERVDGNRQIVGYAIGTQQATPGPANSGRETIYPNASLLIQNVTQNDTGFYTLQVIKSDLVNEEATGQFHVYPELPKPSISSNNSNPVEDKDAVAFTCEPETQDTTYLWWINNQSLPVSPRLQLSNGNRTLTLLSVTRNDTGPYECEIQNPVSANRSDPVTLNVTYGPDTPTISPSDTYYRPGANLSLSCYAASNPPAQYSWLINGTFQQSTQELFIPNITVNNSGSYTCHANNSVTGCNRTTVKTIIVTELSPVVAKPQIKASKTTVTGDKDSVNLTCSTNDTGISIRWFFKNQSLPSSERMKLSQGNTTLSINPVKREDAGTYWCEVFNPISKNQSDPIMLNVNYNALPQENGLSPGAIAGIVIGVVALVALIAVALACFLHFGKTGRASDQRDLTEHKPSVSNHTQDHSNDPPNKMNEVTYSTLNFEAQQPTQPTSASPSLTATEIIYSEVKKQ
Nature of the test: flow cytometry on transient HEK293T transfectants. As to the method: (§1) Briefly, cells were harvested, counted, checked for viability and re-suspended at 1×10⁶ cells/ml in FACS buffer (100 μl PBS 0.1% BSA). 100 μl of the cell suspension (containing 0.1×10⁶ cells) were plated iton round-bottom 96-well plates and washed twice with 150 μl of cold PBS. Cells were stained for 30 min at 4° C., using a 1:5000 pre-diluted suspension of the fixable viability dye eFluor660 (eBioscience, #65-0864-14) in PBS. […] Cells were washed twice with cold PBS 0.1% BSA, re-incubated for further 30 min at 4° C. with the FITC-conjugated AffiniPure F(ab′)2 Fragment goat anti-human IgG Fcg Fragment Specific secondary antibody (Jackson Immuno Research Lab FITC #109-096-098, 1:50 pre-diluted in PBS 0.1% BSA), washed twice with cold PBS 0.1% BSA and fixed using 150 μl PBS 0.1% BSA, containing 2% PFA and incubation at 4° C. for 20 min. Thereafter, cells were washed once for 8 min at 400×g, 4° C. and finally re-suspended in 150 μl FACS buffer for the FACS measurement. Fluorescence was measured using BD FACS CantoII. Binding curves were obtained using GraphPadPrism6 (FIG. 20A).

Test [3] addresses T3, human CEACAM6 (human, UniProt P40199 35-320).
T3 construct: whole, on cells
T3 sequence (looked up): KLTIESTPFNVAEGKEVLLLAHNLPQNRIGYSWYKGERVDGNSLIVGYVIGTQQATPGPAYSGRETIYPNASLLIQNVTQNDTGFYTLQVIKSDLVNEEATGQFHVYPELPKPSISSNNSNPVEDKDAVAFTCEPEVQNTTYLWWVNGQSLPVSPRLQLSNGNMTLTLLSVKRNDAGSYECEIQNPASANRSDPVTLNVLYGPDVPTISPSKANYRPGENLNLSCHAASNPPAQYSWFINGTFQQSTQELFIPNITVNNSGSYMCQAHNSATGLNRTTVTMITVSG
In words: flow cytometry on transient HEK293T transfectants. As to the method: as §1

The target of test [4] is T1, human Carcinoembryonic antigen (CEA), …. In words: flow cytometry on LS-174T cells (~40 700 CEA binding sites). As to the method: (§2) The binding of the TCB molecules used in Example 5A and B was tested on different CEA-expressing tumor and CD3-expressing Jurkat (DSMZ ACC 282) cells.
(§3) Briefly, cells were harvested, counted, checked for viability and re-suspended at 2×10⁶ cells/ml in FACS buffer (100 μl PBS 0.1% BSA). 100 μl of cell suspension (containing 0.2×10⁶ cells) were incubated in round-bottom 96-well plate for 30 min at 4° C. with increasing concentrations of the CEA IgG (31 pM-500 nM), washed twice with cold PBS 0.1% BSA, re-incubated for further 30 min at 4° C. with the FITC-conjugated AffiniPure F(ab′)2 Fragment goat anti-human IgG Fcg Fragment Specific secondary antibody (Jackson Immuno Research Lab FITC #109-096-008, 1:40 pre-diluted in PBS 0.1% BSA), washed twice with cold PBS 0.1% BSA and fixed using 150 μl PBS 0.1% BSA, containing 2% PFA and incubation at 4° C. for 20 min. Thereafter, cells were washed once for 8 min at 400×g, 4° C. and finally re-suspended in 150 μl FACS buffer for the FACS measurement. Fluorescence was measured using Miltenyi MACSQuant.

The target is the same in test [5]. In words: cell-based or functional assay.
Test [6] shares this target. Nature of the test: flow cytometry on MKN45 cells (~513 300 CEA binding sites). As to the method:
as §2, §3

B1: Humanized variant 1 of T84.66 IgG (antibody, V domains shown)
VH: QVQLVQSGAEVKKPGSSVKVSCKASGFNIKDTYMHWVRQAPGQGLEWMGRIDPANGNSKYVPKFQGRVTITADTSTSTAYMELSSLRSEDTAVYYCAPFGYYVSDYAMAYWGQGTLVTVSS
VL: EIVLTQSPATLSLSPGERATLSCRAGESVDIFGVGFLHWYQQKPGQAPRLLIYRASNRATGIPARFSGSGSGTDFTLTISSLEPEDFAVYYCQQTNEDPYTFGQGTKLEIK
notes: Tested as IgG and detected with an anti-human IgG Fc secondary antibody
In the case of B1, the EC50 (in general, the midpoint of the concentration-response curve) in test [1] came to 1.5 µg/mL.

B2: CEA CD3 TCB molecule B, "2+1 IgG CrossFab, inverted" with charge modifications, humanized CEA binder (humanized variant 1) (bispecific antibody)
heavy 1: not shown
heavy 2: QVQLVQSGAEVKKPGSSVKVSCKASGFNIKDTYMHWVRQAPGQGLEWMGRIDPANGNSKYVPKFQGRVTITADTSTSTAYMELSSLRSEDTAVYYCAPFGYYVSDYAMAYWGQGTLVTVSSASTKGPSVFPLAPSSKSTSGGTAALGCLVEDYFPEPVTVSWNSGALTSGVHTFPAVLQSSGLYSLSSVVTVPSSSLGTQTYICNVNHKPSNTKVDEKVEPKSCDKTHTCPPCPAPEAAGGPSVFLFPPKPKDTLMISRTPEVTCVVVDVSHEDPEVKFNWYVDGVEVHNAKTKPREEQYNSTYRVVSVLTVLHQDWLNGKEYKCKVSNKALGAPIEKTISKAKGQPREPQVCTLPPSRDELTKNQVSLSCAVKGFYPSDIAVEWESNGQPENNYKTTPPVLDSDGSFFLVSKLTVDKSRWQQGNVFSCSVMHEALHNHYTQKSLSLSP
light 1: EIVLTQSPATLSLSPGERATLSCRAGESVDIFGVGFLHWYQQKPGQAPRLLIYRASNRATGIPARFSGSGSGTDFTLTISSLEPEDFAVYYCQQTNEDPYTFGQGTKLEIKRTVAAPSVFIFPPSDRKLKSGTASVVCLLNNFYPREAKVQWKVDNALQSGNSQESVTEQDSKDSTYSLSSTLTLSKADYEKHKVYACEVTHQGLSSPVTKSFNRGEC
light 2: EVQLLESGGGLVQPGGSLRLSCAASGFTFSTYAMNWVRQAPGKGLEWVSRIRSKYNNYATYYADSVKGRFTISRDDSKNTLYLQMNSLRAEDTAVYYCVRHGNFGNSYVSWFAYWGQGTLVTVSSASVAAPSVFIFPPSDEQLKSGTASVVCLLNNFYPREAKVQWKVDNALQSGNSQESVTEQDSKDSTYSLSSTLTLSKADYEKHKVYACEVTHQGLSSPVTKSFNRGEC
notes: The two copies of the CEA light chain follow from the 2+1 format and the 1:2:1:1 vector ratio; also called CEA CD3 TCB based on humanized variant 1
With B2, the binding result in test [2] and in test [3] was “no binding (tested: 30.5 pM-500 nM)” throughout.

B3: CEA CD3 TCB molecule X (TCB of similar structure as molecule B, based on a different humanized CEA binder not based on T84.66) (bispecific antibody)
chain 1: not shown
chain 2: QVQLVQSGAEVKKPGASVKVSCKASGYTFTEFGMNWVRQAPGQGLEWMGWINTKTGEATYVEEFKGRVTFTTDTSTSTAYMELRSLRSDDTAVYYCARWDFAYYVEAMDYWGQGTTVTVSSASTKGPSVFPLAPSSKSTSGGTAALGCLVKDYFPEPVTVSWNSGALTSGVHTFPAVLQSSGLYSLSSVVTVPSSSLGTQTYICNVNHKPSNTKVDKKVEPKSCDKTHTCPPCPAPEAAGGPSVFLFPPKPKDTLMISRTPEVTCVVVDVSHEDPEVKFNWYVDGVEVHNAKTKPREEQYNSTYRVVSVLTVLHQDWLNGKEYKCKVSNKALGAPIEKTISKAKGQPREPQVCTLPPSRDELTKNQVSLSCAVKGFYPSDIAVEWESNGQPENNYKTTPPVLDSDGSFFLVSKLTVDKSRWQQGNVFSCSVMHEALHNHYTQKSLSLSPGK
chain 3: QAVVTQEPSLTVSPGGTVTLTCGSSTGAVTTSNYANWVQEKPGQAFRGLIGGTNKRAPGTPARFSGSLLGGKAALTLSGAQPEDEAEYYCALWYSNLWVFGGGTKLTVLSSASTKGPSVFPLAPSSKSTSGGTAALGCLVKDYFPEPVTVSWNSGALTSGVHTFPAVLQSSGLYSLSSVVTVPSSSLGTQTYICNVNHKPSNTKVDKKVEPKSC
chain 4: DIQMTQSPSSLSASVGDRVTITCKASAAVGTYVAWYQQKPGKAPKLLIYSASYRKRGVPSRFSGSGSGTDFTLTISSLQPEDFATYYCHQYYTYPLFTFGQGTKLEIKRTVAAPSVFIFPPSDEQLKSGTASVVCLLNNFYPREAKVQWKVDNALQSGNSQESVTEQDSKDSTYSLSSTLTLSKADYEKHKVYACEVTHQGLSSPVTKSFNRGEC
Regarding B3, the EC50 in test [4] came to 11.7 nM; in test [6] it was 27.9 nM. The “EC50 of T-cell mediated lysis of Kato III cells (LDH release, human PBMC, E:T 10:1), 48 h” value in test [5] is 8.23 nM.

The values above are taken from patent US20200347147A1 (Hoffmann-La Roche, published 2020).
